The nature of series [1]: Conversion rate of substrate compound A by E. coli expressing each engineered protein (HPLC, oxygenase activity). It counts as biochemical. An excerpt:
The high-throughput bacterial protein expression was achieved by cloning the synthesized gene that encodes each engineered protein into a bacterial expression vector with a C-terminal histidine tag (His-tag). The vectors were transformed into Escherichia coli (E. coli), and expression of the engineered proteins was induced. E. coli cultures were selected and cultured in centrifuge tubes overnight, meanwhile, added with substrates and IPTG, and the cultures were centrifuged to pellet the bacteria the next day. Alternatively, E. coli cultures were selected and cultured in centrifuge tubes overnight, and centrifuged to pellet the bacteria after adding substrates for reaction the next day. The supernatant of reaction solution was pipetted into a 96-well plate and the absorbance at 510 nm from 4-aminoantipyrine and potassium ferricyanide was measured by an endpoint colorimetric method to detect phenol products. Substrate reduction and product yield were measured by high performance liquid chromatography (HPLC) to detect the oxygenase activity (i.e., enzymatic activity) of the engineered proteins, and the activities of the proteins were compared by calculating conversion rates.
Conversion rate=(Peak area of initial substrate−Peak area of substrate after reaction)/Peak area of initial substrate*100%

A short description of series [2]: Enzymatic kinetic measurements of purified proteins with compound A as substrate. Type of series: biochemical. Particulars: purified protein, compound A 0-1000 μM as substrate. Here is the method: Based on the results of HPLC, representative engineered proteins were selected for protein purification. Further protein characterization, such as Km, Vmax and Kcat, was performed on the 8 engineered proteins from Table 2. Conventional Ni column affinity chromatography was used for protein purification and protein extract purity was assessed by SDS-PAGE analysis. After determining protein concentration by BCA method, enzyme activity was determined.

Where [3] appears, read: Reaction condition 1: bacteria cultured overnight, substrate compound A and IPTG added to react overnight.
The mark [4] stands for this setting: Reaction condition 2: bacteria cultured overnight, 8 times dose of substrate compound A of condition 1 added, react 3 hours the next day.

B1: SEQ ID NO: 50: RdpA mutant L82H + V187L + F182W + R104G + V80T (protein)
chain: MHAALSPLSQRFERIAVQPLTGVLGAEITGVDLREPLDDSTWNEILDAFHTYQVIYFPGQAITNEQHIAFSRRFGPVDPTPHLKSIEGYPEVQMIRREANESGGVIGDDWHTDSTFLDAPPAAVVMRAIDVPEHGGDTGFLSMYTAWETLSPTMQATIEGLNVVHSATRVFGSLYQAQNRRWSNTSLKVMDVDAGDRETVHPLVVTHPGSGRKGLYVNQVYCQRIEGMTDAESKPLLQFLYEHATRFDFTCRVRWKKDQVLVWDNLCTMHRAVPDYAGKFRYLTRTTVGGVRPAR
Consider B1, for which the Conversion rate in series [1] (setting [3]) came to 97.2%. Also, in series [2], the Kcat was determined as 0.07 S^−1, the Km came to 24.9 µM and the Vmax worked out at 15.7.

B2: SEQ ID NO: 130 (protein)
chain: MHAALSPLSQRFERIAVQPLTGVLGAEITGVDLREPLDDSTWNEILDAFHTYQVIYFPGQAITNEQHIAFSRRFGPVDPVPHLKSIEGYPEVQMIRREANESGGVIGDDWHSDSTFLDAPPAAVVMRAIDVPEHGGDTGFLSMYTAWETLSPTMQATIEGLNVVHSATRVFGSLYQAQNMRWSNTSLKVMDVDAGDRETVHPLVVTHPGSGRKGLYVNQVYCQRIEGMTDAESKPLLQFLYEHATRFDFTCRVRWKKDQVLVWDNLCTMHRAVPDYAGKFRYLTRTTVGGVRPAR
Molecule B2 displayed a Conversion rate in series [1] (setting [4]) of 88.3%.

B3: SEQ ID NO: 1: Amino acid sequence of RdpA (wild-type R-dichlorprop dioxygenase) (protein)
chain: MHAALSPLSQRFERIAVQPLTGVLGAEITGVDLREPLDDSTWNEILDAFHTYQVIYFPGQAITNEQHIAFSRRFGPVDPVPLLKSIEGYPEVQMIRREANESGRVIGDDWHTDSTFLDAPPAAVVMRAIDVPEHGGDTGFLSMYTAWETLSPTMQATIEGLNVVHSATRVFGSLYQAQNRRFSNTSVKVMDVDAGDRETVHPLVVTHPGSGRKGLYVNQVYCQRIEGMTDAESKPLLQFLYEHATRFDFTCRVRWKKDQVLVWDNLCTMHRAVPDYAGKFRYLTRTTVGGVRPAR
modifications: Sphingobium herbicidovorans
Turning to B3, the Conversion rate in series [1] (setting [3]) and in series [1] (setting [4]) was 0.06% each time.

B4: SEQ ID NO: 134 (protein)
chain: MHAALSPLSQRFERIAVQPLTGVLGAEITGVDLREPLDDSTWNEILDAFHTYQVIYFPGQAITNEQHIAFSRRFGPVDPVPHLKSIEGYPEVQMIRREANESGGVIGDDWHSDSTFLDAPPAAVVMRAIDVPEHGGDTGFLSMYTAWETLSPTMQATIEGLNVVHSATRVFGSLYQAQNWRWSNTSLKVMDVDAGDRETVHPLVVTHPGSGRKGLYVNQVYCQRIEGMTDAESKPLLQFLYEHATRFDFTCRVRWKKDQVLVWDNLCTMHRAVPDYAGKFRYLTRTTVGGVRPAR
For the molecule B4, the Conversion rate in series [1] (setting [4]) stood at 77.6%.

B5: SEQ ID NO: 118: RdpA mutant L82H + V187L + F182W + R104G + V77I (protein)
chain: MHAALSPLSQRFERIAVQPLTGVLGAEITGVDLREPLDDSTWNEILDAFHTYQVIYFPGQAITNEQHIAFSRRFGPIDPVPHLKSIEGYPEVQMIRREANESGGVIGDDWHTDSTFLDAPPAAVVMRAIDVPEHGGDTGFLSMYTAWETLSPTMQATIEGLNVVHSATRVFGSLYQAQNRRWSNTSLKVMDVDAGDRETVHPLVVTHPGSGRKGLYVNQVYCQRIEGMTDAESKPLLQFLYEHATRFDFTCRVRWKKDQVLVWDNLCTMHRAVPDYAGKFRYLTRTTVGGVRPAR
In series [1] (setting [3]), B5 yielded a Conversion rate of 95.8%. In addition, in series [2], the Kcat was 0.43 S^−1, the Km turned out to be 83.7 µM and the Vmax came to 99.5.

B6: SEQ ID NO: 122: RdpA mutant L82H + V187L + F182W + G103L + R104G + V105Y (protein)
chain: MHAALSPLSQRFERIAVQPLTGVLGAEITGVDLREPLDDSTWNEILDAFHTYQVIYFPGQAITNEQHIAFSRRFGPVDPVPHLKSIEGYPEVQMIRREANESLGYIGDDWHTDSTFLDAPPAAVVMRAIDVPEHGGDTGFLSMYTAWETLSPTMQATIEGLNVVHSATRVFGSLYQAQNRRWSNTSLKVMDVDAGDRETVHPLVVTHPGSGRKGLYVNQVYCQRIEGMTDAESKPLLQFLYEHATRFDFTCRVRWKKDQVLVWDNLCTMHRAVPDYAGKFRYLTRTTVGGVRPAR
In series [1] (setting [3]), B6 gave a Conversion rate of 94.3%. Besides, in series [2], the Kcat is on record as 1.1 S^−1, the Km was determined as 96.4 µM and the Vmax came out at 127.9.

B7: SEQ ID NO: 2 (protein)
chain: MHAALSPLSQRFERIAVQPLTGVLGAEITGVDLREPLDDSTWNEILDAFHTYQVIYFPGQAITNEQHIAFSRRFGPVDPVPHLKSIEGYPEVQMIRREANESGRVIGDDWHTDSTFLDAPPAAVVMRAIDVPEHGGDTGFLSMYTAWETLSPTMQATIEGLNVVHSATRVFGSLYQAQNRRFSNTSVKVMDVDAGDRETVHPLVVTHPGSGRKGLYVNQVYCQRIEGMTDAESKPLLQFLYEHATRFDFTCRVRWKKDQVLVWDNLCTMHRAVPDYAGKFRYLTRTTVGGVRPAR
With B7, the Conversion rate in series [1] (setting [3]) turned out to be 67.5%.

B8: SEQ ID NO: 6 (protein)
chain: MHAALSPLSQRFERIAVQPLTGVLGAEITGVDLREPLDDSTWNEILDAFHTYQVIYFPGQAITNEQHIAFSRRFGPVDPVPHLKSIEGYPEVQMIRREANESGRVIGDDWHTDSTFLDAPPAAVVMRAIDVPEHGGDTGFLSMYTAWETLSPTMQATIEGLNVVHSATRVFGSLYQAQNRRFSNTSLKVMDVDAGDRETVHPLVVTHPGSGRKGLYVNQVYCQRIEGMTDAESKPLLQFLYEHATRFDFTCRVRWKKDQVLVWDNLCTMHRAVPDYAGKFRYLTRTTVGGVRPAR
In series [1] (setting [3]), B8 displayed a Conversion rate of 95.2%.

B9: SEQ ID NO: 54: RdpA mutant L82H + V187L + F182W + R104G + R180W (protein)
chain: MHAALSPLSQRFERIAVQPLTGVLGAEITGVDLREPLDDSTWNEILDAFHTYQVIYFPGQAITNEQHIAFSRRFGPVDPVPHLKSIEGYPEVQMIRREANESGGVIGDDWHTDSTFLDAPPAAVVMRAIDVPEHGGDTGFLSMYTAWETLSPTMQATIEGLNVVHSATRVFGSLYQAQNWRWSNTSLKVMDVDAGDRETVHPLVVTHPGSGRKGLYVNQVYCQRIEGMTDAESKPLLQFLYEHATRFDFTCRVRWKKDQVLVWDNLCTMHRAVPDYAGKFRYLTRTTVGGVRPAR
In series [1] (setting [3]), B9 registered a Conversion rate of 92.5%. Further, in series [2], the Kcat is 0.35 S^−1, the Km came out at 96.9 µM and the Vmax is given as 81.

B10: SEQ ID NO: 58: RdpA mutant L82H + V187L + F182W + R104G + R180M (protein)
chain: MHAALSPLSQRFERIAVQPLTGVLGAEITGVDLREPLDDSTWNEILDAFHTYQVIYFPGQAITNEQHIAFSRRFGPVDPVPHLKSIEGYPEVQMIRREANESGGVIGDDWHTDSTFLDAPPAAVVMRAIDVPEHGGDTGFLSMYTAWETLSPTMQATIEGLNVVHSATRVFGSLYQAQNMRWSNTSLKVMDVDAGDRETVHPLVVTHPGSGRKGLYVNQVYCQRIEGMTDAESKPLLQFLYEHATRFDFTCRVRWKKDQVLVWDNLCTMHRAVPDYAGKFRYLTRTTVGGVRPAR
In turn, B10 came in with a Conversion rate in series [1] (setting [3]) of 90%. For the same molecule, in series [2], the Kcat is given as 0.05 S^−1, the Km was determined as 28.3 µM and the Vmax is 12.3.

Values taken from patent US20250163449A1, “HERBICIDE-TOLERANT GENES AND METHOD FOR USING SAME” (QINGDAO KINGAGROOT CHEMICAL COMPOUND CO., LTD., priority 2022, published 2025).
